Laboratory results reported in patent publication US20260217797A1 (Takeda / Millennium, published 2026).

Each binder was assayed against SARS-CoV-2 RBD-mFc (SARS-CoV-2, UniProt P0DTC2 319-541) (assay: Octet BLI, IgG, avid).

Binder	Kd [pM]
A-12 (antibody, V domains shown) VH: EVQLLESGGGLVQPGGSLRLSCAVSGLTVSSNYMSWVRQAPGKGLEWVSLIYSGGSTYYADSVKGRFTISRDNSKNTLYLQMNSLRAEDTAVYYCARGELGIPYGMDVWGQGTTVTVSS VL: QSVLTQPPSVSAAPGQKVTISCSGGSSNVGDNFVSWYQQLPGTAPKLLIYDNNRRPSGIPDRFSGSKSGTSATLGITGLQTGDEADYYCGTWDSSLSAGVFGGGTKVTVL	151
A-11 (antibody, V domains shown) VH: EVQLVESGAEVKKPGSSVMVSCKASGGTFSRYAISWVRQAPGQGLEWMGGIIPVFGIVHYAQKFQGRVTITADKSTSTAYMELSSLRSEDTAAYYCARDRQQQPSPYYYHGMDVWGQGTTVTVSS VL: DIRLTQSPSSLSASVGDRVTITCQASQDISNYLNWYQQKPGKAPKLLIYDASNLETGVPTRFSGSGSGTDFTFTISSLQPEDIATYYCQQYDNLPLFGGGTKVEIK	173
A-10 (antibody, V domains shown) VH: QVQLVQSGGGVVQPGRSLRLSCAASGFTFSSYGMHWVRQAPGKGLEWVAVISYDGSNKYYTDSVKGRFTISRDNSKNTLYLQMNSLRAEDTAVYYCAKDLPREVYYDILTGYDNPYYYYGMDVWGQGTTVTVSS VL: not shown	93.1
A-4 (antibody, V domains shown) VH: EVQLVESGGGLIQPGGSLTLSCAASGFTVSSNYMNWVRQAPGKGLEWVSVIYSGGSTYYADSVKGRFTISRDNSKNTLYLQMNSLRAEDTAVYYCAREVYSYFDYWGQGTLVTVSS VL: DIQLTQSPSFLSASVGDRVTITCRASQGISSYLAWYQQKPGKAPKLLIYAASTLQSGVPSRFSGSGSGTEFTLTISRLQPEDLATYYCQQLNSYPPHTFGQGAKLEIK	663
A-8 (antibody, V domains shown) VH: EVQLLESGGGLVQPGGSLRLSCAASGFTFSSYAMSWVRQAPGKGLEWVSAISGSGNSTSYADSVKGRFTLSRDNSKNTLYLQMNSLRAEDTAIYYCAKGLGTRSFNWGAFDYWGQGTLVTVSS VL: DIRVTQSPSSLSASVGDRVTITCRASQGISYSLAWYQQKPGKAPKLLLYAASNLESGVPSRFSGSGSGTDYTLTVSSLQPEDFATYYCQQYYSTPWTFGQGTKVEIK	106
A-19 (antibody, V domains shown) VH: QVQLVQSGAEVKKPGESLKISCKGSGYSFTSYWIAWVRQMPGKGLEWMGIIYPGDSDTSYSPSFQGQVTISADKSISTAYLQWSSLKASDTAMYYCARGPNKYNWFDTWGQGTLVTVSS VL: not shown	129
A-2 (antibody, V domains shown) VH: EVQLVESGGGLIQPGGSLRLSCAASGFTVSSNYMSWVRQAPGKGLEWVSIIYSGGSTYYADSVKGRFTISRDNSKNTLYLQMNSLRAEDTAVYYCARAPSGEYGDPIYYWGQGTLVTVSS VL: QSVLTQPPSASASLGASVKLTCTLSSGHSTYTIAWHQQQPEKGPRYLMKLNSDGSHSKGDGIPDRFSGSSSGAERYLTISSLQSEDEADYYCQTWGTGNHWVFGGGTKLTVL	125
A-5 (antibody, V domains shown) VH: QVQLVESGGGLIQPGESLRLSCAASEFIVSRNYMSWVRQAPGKGLEWVSVIYSGGNTYYADSVKGRFTISRDNSKNTLYLQMNSLRAEDTAVYYCARDLRGPGCFDFWGQGTTVTVSS VL: DIQVTQSPSSLSASVGDRVTITCQASQDISNFLNWYQQKPGKAPKLLIYDASNLETGVPSRFSASGSGTEFTFTISSLQPEDIATYYCQQYDNLRVTFGGGTKLEIK	179
A-3 (antibody, V domains shown) VH: EVQLLESGPGLVKPSETLSLTCTVSGGSINSRSYYWGWIRQPPGKGLEWIGSIYYSGSTYYNPSLKSRVTISVDTSKNQFSLKLSSVIAADTAVYFCARLEQWELPGGWFDPWGQGTLVTVSS VL: NFMLTQPHSVSESPGKTVTISCTRSSGSIASNYVQWYQQRPGSAPTTVIYEDNQRPSGVPDRFSGSIDISSNSASLTISGLKTEDEADYSCQSSDSSNVVFGGGTKLTVL	141
A-15 (antibody, V domains shown) VH: QVQLVQSGAEVKKPGASVKVSCKASGYTSSSYYMHWVRQAPGQGPEWMGIINPGGTSTSYAQKFQGRVTMTRDTSTSTVYMELSSLRSEDTAVYYCAIGYCSTTSCRWGDAFDIWGQGTMVTVSS VL: DIQVTQSPSSLSASVGDRVTITCRASQSISSYLNWYQQKPEKAPNLLIYAASSLQSGVPSRFSGSGSGTDFTLTISSLQPEDFATYYCQQSSTTPPTFGQGTKVEIK	212
A-1 (antibody, V domains shown) VH: EVQLVESGGGVVQPGGSLRLSCAASGFAFSTYWMHWVRQAPGKGLVWVSRINGDGSGTNYADSVKGRFTISRDNAKSTLYLQMNSLRTEDTAVYYCTRTAGRGAYDFGRFDPWGQGTLVTVSS VL: DIVLTQTPLSLPVTPGEPASISCRSSQSLLHSNGYNYLDWYLQKAGQSPQLLVFLGSNRASGVPDRFSGSASGTDFTLKISRVEAEDVGVYYCMQALQIPITFGQGTRLEIK	89
A-14 (antibody, V domains shown) VH: EVQLVESGGGVVQPGRSLRLSCAASGFTFSTYGMHWVRQAPGKGLEWVAVIWYDGSNKYYADSVKGRFTISRDNSKNTLYLQMNSLRAEDTAVYYCARSVDGDYLEYFQHWGQGTLVTVSS VL: QPVLTQPRSVSGSPGQSVTISCTGTSSDVGGYNYVSWYQQHPGKAPKLMIYDVSKRPSGVPDRFSGSKSGNTASLTISGLQAEDEADYYCCSYAGGYTNYVFGTGTKLTVL	158
A-13 (antibody, V domains shown) VH: QVQLVQSGAEVKKPGASVKVSCKASGYTFTDYYMHWVRQAPGQGLEWMGWINPNSGGTNSAQKFQGRVTMTRDTSINTAYMELSRLRSDDTAVYFCARDSHLAMVRGDFEYWGQGTLVTVSS VL: QSVLTQPASVSGSPGQSITISCTGTSSDVESYNVVSWYQQHPGKAPKLMIYEVSKRPSGVSHRFSGSKSGNTASLTISGLQAEDESDYYCCSYAGNSTWVFGGGTKLTVL	95.9
A-7 (antibody, V domains shown) VH: EVQLVESGAEVRKPGASVKVSCKASGYTFTFYYIHWVRQAPGQGLEWMGWISPISGATNYAQTFQGRVTMTRDTSITTAYMELSSLTSDDTAVYYCAREKYYDSSGSSDYWGQGTLVTVSS VL: QPVLTQPPSVSAAPGQNVTIFCSGSSSNIGNNYVSWYQQLPGPAPKLLIYENNKRPSGIPDRFSGSKSGTSATLGITGLQTGDEADYYCGTWESSLSAPRVFGSGTKLTVL	94.1

The binders below were run against SARS-CoV-2 Variant B.1.17 N501Y S1-His (SARS-CoV-2, UniProt P0DTC2 16-685) (assay: Octet BLI, IgG, monovalent).

Binder	Kd [pM]
A-20 (antibody, V domains shown) VH: QVQLVESGGGVVQPGRSLRLSCAASGFTFSNFAMHWVRQAPGKGLEWVAVILYDGINKYYADSVKGRFTISRGNSKNTLSLQMNSLRAEDTAVYYCARAQNYYDRSGTLQLDAFDIWGQGTLVTVSS VL: AIQMTQSPSSLSASVGDRVTITCRASQGIRNDLGWYQQKPGKAPKLLIYAASSLQSGVPSRFSGSGSGTDFTLTISSLQPEDFATYYCLQDYNYPLTFGGGTKVEIK	2570
A-20.1 (antibody, V domains shown) VH: QVQLVESGGGVVQPGRSLRLSCAASGFTFSNFAMHWVRQAPGKGLEWVAVILYDGINKYYADSVKGRFTISRGNSKNTLSLQMNSLRAEDTAVYYCARAQNYYDRSGTLQLDAFDIWGQGTLVTVSS VL: AIQMTQSPSSLSASVGDRVTITCVASQGIRNDLGWYQQKPGKAPKLLIYEASSLESGVPSRFSGSGSGTDFTLTISSLQPEDFATYYCLQDYNYPLTFGGGTKVEIK	604
A-23 (antibody, V domains shown) VH: EVQLVESGGGLVQPGRSLRLSCAASGFTFDDYAMHWVRQAPGKGLEWVSGISWNSGTIGYADSVKGRFIISRDNAKNSLYLQMNSLRGEDMALYYCGKDRKREDPSLGGMDVWGQGTTVTVSS VL: SYVLTQPPSVSVAPGQTARITCGGNNIGSKSVHWYQQKPGQAPVLVVYDDTDRPSGIPERFSGSNSGNTATLTISRVEAGDEADYYCQVWDSSSDHYVFGTGTKVTVL	1200
A-23.3 (antibody, V domains shown) VH: EVQLVESGGGLVQPGRSLRLSCAASGFTFDDYAMHWVRQAPGKGLEWVSGTSWNSGTIGYADSVKGRFIISRDNAKNSLYLQMNSLRGEDMALYYCVKDRKREDPSLGGMDVWGQGTTVTVSS VL: SYVLTQPPSVSVAPGQTARITCGGNNIGSKSVHWYQQKPGQAPVLVVYDDTDRPSGIPERFSGSNSGNTATLTISRVEAGDEADYYCQVWDSSSDDYVFGTGTKVTVL	286
A-23.2 (antibody, V domains shown) VH: EVQLVESGGGLVQPGRSLRLSCAASGFTFDDYAMHWVRQAPGKGLEWVSGTSWNSGTIGYADSVKGRFIISRDNAKNSLYLQMNSLRGEDMALYYCVKDRKREDPSLGGMDVWGQGTTVTVSS VL: SYVLTQPPSVSVAPGQTARITCGGNNIGSKSVHWYQQKPGQAPVLVVYDDTDRPSGIPERFSGSNSGNTATLTISRVEAGDEADYYCQVWDVSSDSYVFGTGTKVTVL	242
A-23.1 (antibody, V domains shown) VH: EVQLVESGGGLVQPGRSLRLSCAASGFTIDDYAMHWVRQAPGKGLEWVSGISWNGGTIGYADSVKGRFIISRDNAKNSLYLQMNSLRGEDMALYYCGKDRKREDPSLGGMDVWGQGTTVTVSS VL: SYVLTQPPSVSVAPGQTARITCLGNNIGSKSVHWYQQKPGQAPVLVVYDDTDRPSGIPERFSGSNSGNTATLTISRVEAGDEADYYCQVWDSESDHYVFGTGTKVTVL	512
